{"source": "the nanobody polyreactivity screen of Harvey et al. (2022)", "data": [{"assay": "yeast display, Sf9 membrane polyspecificity reagent, FACS + sequencing; frameworks hold sequencing errors", "method_in_brief": "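Galactose induction of a Saccharomyces cerevisiae BJ5465 synthetic nanobody display library ran 36–48 hours. The cells were then stained for 1 hour at 4 °C with 10% biotinylated, detergent-solubilized Sf9 membrane reagent, pulled down on streptavidin microbeads and FACS-sorted into low and high (top ~1%) gates on expression and reagent-binding fluorescence. Labels for polyreactivity follow the gate of origin.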", "values": [{"sequence": "QVQLVESGGGLVQAGGSLRISCAASGSTFSSYAMGWYRQAPGKERELVAAISRSGDRTYYADSVKGRFTISRDNAEKTVYFQMNSLKPEDTAFYYCNTVYINRVTNLYDYWGQGTQVTVSS", "polyreactivity (PSR sort gate)": "high polyreactivity"}, {"sequence": "QVQLVESGGGLVQAGGSLRISCAASGSTFTTYSMGWYRQAPGKEREKVAAIRFSGGTTYYADSVKGRFTISRDNAKNTVYLQMNSLKPEDTAVYYCAAVYISRIFFGRARGDYWGQGTQVTVSS", "polyreactivity (PSR sort gate)": "low polyreactivity"}, {"sequence": "QVQLVESGGGLVQAGGSLRISCAASGSTFWTYAMGWYRQAPGKERELVAAITTGGNTYYADSVKGRFTISRDNAKNTVYLQMNSLKPEDTAVYSCAAASWTYYYSQYGAVFREYDYWGQGTEVTVSS", "polyreactivity (PSR sort gate)": "low polyreactivity"}, {"sequence": "QVQLVESGGGLVQAGGSLRISCAASGSTFYFNAMGWYRQAPGKERELVAGISSGGSTYYADSVKWRFTISRDNAKTTVYLQMNSLKPEDTAVYYCAATWLVERPFSYTEYGYWGQGTQVTVSS", "polyreactivity (PSR sort gate)": "low polyreactivity"}, {"sequence": "QVQLVESGGGLVQAGGSLRISCAASGSTFYYYAMGWYRQAPGKERELVAAISTTGGSTYYADSVKGRFTISRDNAKNTVYLQMNSLKPEDTAVYYCNAVTRYSRVRAVSSRDSEYWGQGTQVTVSS", "polyreactivity (PSR sort gate)": "high polyreactivity"}, {"sequence": "QVQLVESGGGLVQAGGSLRISCAASGSTITWYTMGWYRQAPGKERELVATIRKRGGSTYYADSVKGRFTISRDNAKNTVYLQMNSLKPEDTAVYYCNDTRLIYRFNPEEAGSTIPYDYWGQGTQVTVSS", "polyreactivity (PSR sort gate)": "high polyreactivity"}, {"sequence": "QVQLVESGGGLVQAGGSLRISCAASGSTLVGKVMGWYRQAPGKERELVADITLSGGSTYYSDSVKGRFTISRDNAKNTVYLQMNSLKPEDTAVYYCNDVFFNYLLEYDYWGQGTQVTVSS", "polyreactivity (PSR sort gate)": "high polyreactivity"}, {"sequence": "QVQLVESGGGLVQAGGSLRISCAASGYIFTGNAMGWYRKAPGKEREFVAAISWSGGSTYYADSVKGRFTISRDNAKNTVYLQMNSLKPEDTAVYYCNKYRPYGRIYHLAYGRDYWGQGTQVTVSS", "polyreactivity (PSR sort gate)": "high polyreactivity"}, {"sequence": "QVQLVESGGGLVQAGGSLRISCAAYGSIFTRYAMGWYRQAPGKERELVAAINSGGSTKYADSVKGRFTISRDNAKNSVYLQMISLKPEDTAVYYCNAGYWWYGYDYWGQGSQVTVSS", "polyreactivity (PSR sort gate)": "high polyreactivity"}, {"sequence": "QVQLVESGGGLVQAGGSLRISCAPSGRIFSYNAMGWYRPAPGKERELVAAINYSDDSTYYADSVKGRFTISRDNAKNTVYLQMNSLKPEDTAVYYCNADASSIVPSYDRPFDYWGQATQVTVSS", "polyreactivity (PSR sort gate)": "low polyreactivity"}, {"sequence": "QVQLVESGGGLVQAGGSLRISCAPSGSTFIPNDMGWYRQAPGKERELVAAITVSGDDTYYADSVKGRFTISRDNAKNNVYVQMNILKPEVTAVYYCAAEWGLYVGQYEYWGQGTQVTVSS", "polyreactivity (PSR sort gate)": "low polyreactivity"}, {"sequence": "QVQLVESGGGLVQAGGSLRISCASSGRIFAFYVMGWYRQAPGKERELVAAISIRGTRTYYADSVKGRFTISRDNAKNTVYLQMNSLKPVDTAVYYCNAVTFPHYYDYWGQGPQVTVSS", "polyreactivity (PSR sort gate)": "high polyreactivity"}, {"sequence": "QVQLVESGGGLVQAGGSLRISCASSGRIFTFYAMGWYRPAPGKERELVAAISSGGSTYYADSVKGRFTISRDNAKNTFYLQMNSLKPEDTAVYYCAAEPVWYADYDYWGQGTQVTVSS", "polyreactivity (PSR sort gate)": "low polyreactivity"}, {"sequence": "QVQLVESGGGLVQAGGSLRISCDASGRTFYVYDRGWYRQAPGKERELVAVISSSGSTNYADSVKGRFTISRDNAKNTVYLQMNSLKPEDTAVYYCNRRRWYFFSLDYWGQGTQVTVSS", "polyreactivity (PSR sort gate)": "high polyreactivity"}, {"sequence": "QVQLVESGGGLVQAGGSLRISCDASGSIFELNAMGWYRQAPGKERELVAAISSGSTYYADSVKGRFTITRDNAKNTVYLQMNSLKPVDTAVYYCAKRWRRRFVDVWSLYDYWGQCTQVTVSS", "polyreactivity (PSR sort gate)": "low polyreactivity"}, {"sequence": "QVQLVESGGGLVQAGGSLRISSAASGRTFVNYTMGWYRQAPGKERELVAAITSSGGSTYYADSVKGRFTISRDNAKNTVYLQMNSLKPEDTAVYYCASAIFDLSFWLYYWGQGTQVTVSS", "polyreactivity (PSR sort gate)": "low polyreactivity"}, {"sequence": "QVQLVESGGGLVQAGGSLRISSAASGSIFLVNALGWYRHAPGKERELVAGISDGGSTYYADSVKGRFTISRDNAKNSVYLLLICLKPEDTAVYFCAAESEQWFSYVLSYDWESDSWGQGSQVTVSS", "polyreactivity (PSR sort gate)": "low polyreactivity"}, {"sequence": "QVQLVESGGGLVQAGGSLRISSPASGSIFTLYDMGWYRQAPGKERELVSAITEDGASTYYADSVKGRFTISRDIAKNTVYLQMNSLKPEDTAYYYCAAHPTYWPVWYVLYDYWGQGTQVTLSS", "polyreactivity (PSR sort gate)": "low polyreactivity"}, {"sequence": "QVQLVESGGGLVQAGGSLRITCAASGRIFGLYAMGWNRQAPGKEREFVAASSWSGTRTNYADSVKGRFTISRDNAKNTVDLQMNSLKPEDTAVYYCAAAYVSYTGYYGQEYDYWGQGTQVTVSS", "polyreactivity (PSR sort gate)": "high polyreactivity"}, {"sequence": "QVQLVESGGGLVQAGGSLRKSCAASGRTFGYNTMGWYRQAPGKERELVAAITWSGGRTYYADSVKGRFTISRDNAKNTVYLQMNSLKPEDTAVYYCIAVIGREFDYWGQGTQVTVSS", "polyreactivity (PSR sort gate)": "high polyreactivity"}, {"sequence": "QVQLVESGGGLVQAGGSLRLCCAASGLTFHRYAMGSYRQAPGKERELDAAINYSGGRTYYADSVKGRFTISRDNAKNTVYLQMNSLKPEDTAVYYCAAPRASGYYWGQGTQVTVSS", "polyreactivity (PSR sort gate)": "high polyreactivity"}, {"sequence": "QVQLVESGGGLVQAGGSLRLCCAASGRIFRYNAMGWYRQAPGKERELVAAITRSGGSTYYADSVKGRFTISRDNAKNTVYLQMNSLKPEDTAVYYCAKVQNGQWSTSRVPGDYQYNYWGQGTQVTVTS", "polyreactivity (PSR sort gate)": "high polyreactivity"}, {"sequence": "QVQLVESGGGLVQAGGSLRLCCAASGSTQAIYAMGWYRQAPGNERELVAAISGGGSTYADSVKGRFTISRDNAKNTVYLQMNSLKPEDTAVYYCNADGWGDSFWSNFRFDYWGQGTQVSVSS", "polyreactivity (PSR sort gate)": "low polyreactivity"}, {"sequence": "QVQLVESGGGLVQAGGSLRLCCAPSGSIFYGYDMGWYRQAPGKERELVATISWSSGSSTYYADSVKGRFTISRDNAKNTVYLQMNSLKPEDTAVYYCAVDFAIGYRYLGRVDYWGQGTQVTVSS", "polyreactivity (PSR sort gate)": "low polyreactivity"}, {"sequence": "QVQLVESGGGLVQAGGSLRLFCAASGSTFISYAMGWYRQAPGKERELVAAISSSGGSTYYAYSVKGRFTISRDNAKNNVYLQMNSLKPEDTAVYYCAAEAVYYRSWRYYYCGQGTQVTVSS", "polyreactivity (PSR sort gate)": "high polyreactivity"}, {"sequence": "QVQLVESGGGLVQAGGSLRLGCAASGITFNLYAMGWYRQAPGKERELVAAISRSATSTYYADSVKRRFTISRDNAKNTVYLQMNSLKPEDTAVYYCATRGHYRQTINYWGQGTQVTVSS", "polyreactivity (PSR sort gate)": "high polyreactivity"}, {"sequence": "QVQLVESGGGLVQAGGSLRLICAASAITFYDYTMGWYRQAPGKERELVAAISRSGGSTYYADSVKGRFTISRDNAKNTVYLQMNSLKPEETAFYYCADYTHYQPEYDYWGQGTQVTVSS", "polyreactivity (PSR sort gate)": "high polyreactivity"}, {"sequence": "QVQLVESGGGLVQAGGSLRLICAASGFIFGYNARGWYRQAPGKERELVAAINWSGGRTYYADSVKGRFTISRDNAKKTVYLQMNRLKPEDTAVDYCNGDGSRRYNYWGQGTQVTVSS", "polyreactivity (PSR sort gate)": "low polyreactivity"}, {"sequence": "QVQLVESGGGLVQAGGSLRLICAASGFIFPDYGMGWYRQAPGKERELVAAISRNGVSTYYADSLKRRFTISRDNAKNTVYLQMISLIPEDTAVYYCAARYYRIRRVSKSVYYWGQCTQVTVSS", "polyreactivity (PSR sort gate)": "low polyreactivity"}, {"sequence": "QVQLVESGGGLVQAGGSLRLICAASGFIFSRYTMGWYRQAPGKERELVAAISKRGGSTYYADSVKGRFTISRDNAKNTVYLQMNSLKPEDTAVYYCAADRLPSGSLVEYWGQGTQVTVSS", "polyreactivity (PSR sort gate)": "high polyreactivity"}]}]}
